US20150031754, “APTAMER MODULATORS OF ESTROGEN RECEPTORS” (RESEARCH FOUNDATION OF STATE UNIVERSITY OF NEW YORK AT …, published 2015)
Changes are numbered by the printed parent chain.

Experiments:
SNAP-tag (control) = target: T1, SNAP-tag (control) (UniProt P16455); test: pulldown; conditions: SNAP-tag control background
T1 sequence: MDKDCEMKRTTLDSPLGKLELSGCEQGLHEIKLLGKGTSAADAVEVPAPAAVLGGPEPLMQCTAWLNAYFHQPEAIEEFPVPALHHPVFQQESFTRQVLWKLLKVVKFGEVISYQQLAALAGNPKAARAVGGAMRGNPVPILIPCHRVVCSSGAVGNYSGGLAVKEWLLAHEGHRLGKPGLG

[1] = target: T2, Human estrogen receptor alpha (hERα), full-length, unliganded (Homo sapiens, UniProt P03372 P03372:1-595); test: filter; same buffer, 37 C; Hill n>1; conditions: tags: none stated; baculovirus/insect cells; Invitrogen P2187 or EMD4 Biosciences 330655; label: 32P-CTP internal
T2 sequence (P03372 whole entry, one chain of several): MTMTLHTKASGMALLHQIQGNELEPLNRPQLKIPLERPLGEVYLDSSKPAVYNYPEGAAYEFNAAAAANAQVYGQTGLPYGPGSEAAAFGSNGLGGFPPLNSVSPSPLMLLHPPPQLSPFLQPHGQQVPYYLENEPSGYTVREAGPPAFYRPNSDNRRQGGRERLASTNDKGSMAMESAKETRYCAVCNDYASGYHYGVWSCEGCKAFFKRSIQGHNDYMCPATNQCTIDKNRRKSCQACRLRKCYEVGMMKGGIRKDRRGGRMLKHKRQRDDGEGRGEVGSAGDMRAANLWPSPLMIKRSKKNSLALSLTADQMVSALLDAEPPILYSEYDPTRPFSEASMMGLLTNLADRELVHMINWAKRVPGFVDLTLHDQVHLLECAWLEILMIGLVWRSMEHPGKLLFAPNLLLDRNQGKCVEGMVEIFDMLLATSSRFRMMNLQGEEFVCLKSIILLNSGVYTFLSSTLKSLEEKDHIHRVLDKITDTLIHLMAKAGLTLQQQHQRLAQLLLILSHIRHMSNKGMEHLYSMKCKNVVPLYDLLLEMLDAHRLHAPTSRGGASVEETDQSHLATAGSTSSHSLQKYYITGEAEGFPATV
Protocol: The dissociation constant (Kd) of the AptER-1, -2, -3, and -4 were measured using a nitrocellulose filter binding assay. A constant trace amount of [γ-³²P]-CTP incorporated RNA aptamer (˜0.1 nM) was titrated with increasing amounts of the target protein ranging from 5 to 150 nM. The binding activity at each concentration was determined as % binding, by calculating the radioactive signal of the RNA-protein complex retained on the filter as a percentage of the signal at the highest protein concentration (saturated) used. The assays were performed in triplicates for each aptamer. A binding curve was constructed using Sigma Plot 9.0.1, with average binding affinity (% binding) as a function of the protein concentration using a sigmoidal equation (Hill equation, 3 parameters). Apparent Kd was the protein concentration where half of the maximal binding activity was achieved, and were calculated from the data points by using Sigma Plot. […] The first 3 aptamers were isolated in in vitro selection I, and their affinity rank explains the relative abundance in the final selected library. More specifically, it is believed that AptER-1 dominated the final selected pool because it was the strongest binder. AptER-4 was the weakest binder, and would not have been easily identified in the selection I libraries.

[2] = target: Human estrogen receptor beta (hERβ) (Homo sapiens, UniProt Q92731 Q92731:1-530); test: EMSA; affinity similar to hERα; conditions: tags: none stated; baculovirus/insect cells; EMD4 Biosciences 330657; label: 32P-CTP internal
Chain of Human estrogen receptor beta (hERβ) (Q92731 whole entry, one chain of several): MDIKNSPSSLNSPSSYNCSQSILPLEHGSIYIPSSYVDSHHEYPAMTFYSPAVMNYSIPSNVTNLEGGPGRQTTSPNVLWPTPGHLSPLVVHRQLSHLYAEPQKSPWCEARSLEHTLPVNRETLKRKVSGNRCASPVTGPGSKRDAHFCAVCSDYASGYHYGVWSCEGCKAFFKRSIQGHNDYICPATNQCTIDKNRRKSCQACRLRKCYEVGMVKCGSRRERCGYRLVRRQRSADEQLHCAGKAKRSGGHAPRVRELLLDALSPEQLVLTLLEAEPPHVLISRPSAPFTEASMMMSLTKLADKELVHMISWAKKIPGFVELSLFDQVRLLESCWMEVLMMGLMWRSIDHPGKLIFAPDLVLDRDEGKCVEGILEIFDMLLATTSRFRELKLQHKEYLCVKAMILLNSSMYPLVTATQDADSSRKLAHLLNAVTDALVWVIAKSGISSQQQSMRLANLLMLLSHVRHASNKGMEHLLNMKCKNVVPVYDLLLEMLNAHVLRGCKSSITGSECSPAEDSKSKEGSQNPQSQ
Protocol: FIGS. 9A-B illustrate the binding specificity of AptER-1, -2 and -3. […] Radiolabeled AptER-1, -2 and -3 (0.1 nM) were incubated with 20 nM hERα, 200 nM hERβ, or 200 μg/ml HeLa nuclear extract (NE). Binding reactions were resolved on a 4.8% polyacrylamide gel (acrylamide:bis-acrylamide=37.5:1) in ¼×TBE buffer. […] Radiolabeled AptER-1, -2 and -3 (0.1 nM) were incubated with 20 nM or 40 nM hERα, or hERβ. Binding reactions were resolved as described above.
To examine the binding specificity of the first set of isolated aptamers, AptER-1, -2 and -3, proteins were presented at high concentrations in ESMA, including hERβ at 200 nM or HeLa nuclear extract at 200 μg/ml, which should allow detection of weak binding activity. […] This was confirmed in a second EMSA using the two ER subtypes at the same concentrations (FIG. 9B). Furthermore, the binding affinities to the two forms were very close, as shown in the EMSA, and this was more carefully compared with the binding curves of AptER-1 (FIG. 8A). […] In the presence of HeLa nuclear extract (FIG. 9A), no specific shifted band could be observed.

[3] = target: T2, Human estrogen receptor alpha (hERα), …; test: EMSA; 35 nM hERα; fully active; conditions: tags: none stated; baculovirus/insect cells; Invitrogen P2187 or EMD4 Biosciences 330655; label: 32P internal; stem-loop
[4] = target: T2, Human estrogen receptor alpha (hERα), …; test: EMSA; 25 nM hERα; no difference from sB63; conditions: tags: none stated; baculovirus/insect cells; Invitrogen P2187 or EMD4 Biosciences 330655; label: 32P internal
[5] = target: T2, Human estrogen receptor alpha (hERα), …; test: EMSA; no binding; method EMSA or filter; conditions: tags: none stated; baculovirus/insect cells; Invitrogen P2187 or EMD4 Biosciences 330655
[6] = target: T2, Human estrogen receptor alpha (hERα), …; test: EMSA; 200 nM ERα; one complex; BSA and yeast RNA competitors; conditions: tags: none stated; baculovirus/insect cells; Invitrogen P2187 or EMD4 Biosciences 330655; label: labeled
[7] = target: T2, Human estrogen receptor alpha (hERα), …; test: EMSA; 200 nM ERα; two shifted bands; conditions: tags: none stated; baculovirus/insect cells; Invitrogen P2187 or EMD4 Biosciences 330655; label: labeled
hERα DNA-binding domain = hERα DNA-binding domain (Homo sapiens, UniProt P03372 P03372:180-268); test: EMSA; 100-400 nM DBD, 5 nM DNA; conditions: tags: N-terminal His6; E. coli BL21(DE3); label: 5'-32P; hairpin with GAAA tetraloop, ERE in stem
Chain of hERα DNA-binding domain (P03372 180-268, one chain of several): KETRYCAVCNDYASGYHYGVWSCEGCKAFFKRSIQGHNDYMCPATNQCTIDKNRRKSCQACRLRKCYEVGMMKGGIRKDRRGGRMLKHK
Protocol: (§1) No binding activity to RNase inhibitor (control) or DBD & RNase inhibitor was detected. The binding reactions were resolved on the same type of gel as above. […] End-radiolabeled ERE-50mer at 5 nM was mixed with 100× or 400× more concentrated unlabeled competitors ERE-50mer, AptER-1, -2 and -3 RNA or an early generation pool in hERα selection G1 before addition of hERα (40 nM). Only cold ERE-50mer disrupted radioactive ERE-hERα complex.
Class I aptamers bound with similar affinities to both subtypes of ER, which share the highest homology (96%) in the DBD. This raised the possibility that the target site of Class I aptamers was located within the DBD. Whether the aptamers bind to the DBD was tested in binding assays using a recombinant hERα-DBD. It was expressed as a His₆-tagged fusion protein in E. coli BL21 (DE3) and purified as described in the Materials and Methods. To verify its ERE-binding capability, a DNA EMSA was performed. DNA oligo ERE-50mer contains a GAAA tetra loop, which forces the oligo to form a hairpin. A copy of Xenopus laevis vitellogenin A2 ERE (5′-[…]-3′, SEQ ID NO: 73) was presented in the stem of a hairpin. […] However, in both EMSA (FIG. 11B) and filter-binding assay, no association was detected between AptER-1 and DBD. […]

[8] = target: T2, Human estrogen receptor alpha (hERα), …; test: EMSA; not competed by AptER-1, -2, -3 or -4; competed by cold ERE; conditions: tags: none stated; baculovirus/insect cells; Invitrogen P2187 or EMD4 Biosciences 330655; label: 5'-32P; hairpin with GAAA tetraloop, ERE in stem
Protocol: as §1
Whether the aptamers bind to the DNA binding site on the full-length hERα was tested in cross-competition assays using ERE-50mer as a specific competitor. Radiolabeled ERE-50mer was competed with 100× or 400× more concentrated nonradioactive competitors ERE-50mer, AptER-1, -2, -3 or Generation 1 pool of hERα selection G1 (see Example 1). Radiolabeled ERE-50mer at 5 nM was mixed with the competitors before the addition of hERα at 50 nM. The binding reaction was set up as described in the Materials and Methods, and electrophorised in a 4.8% polyacrylamide gel (acrylamide:bis-acrylamide=50:1) in ½ ΔTGB. ERE-50mer served as a positive control of competition, whereas the G1 pool was a negative control. […] This agreed with the result from a second cross-competition assay between radiolabeled AptER-1 and unlabeled ERE-50mer for binding to human ERα (FIG. 9A).

[9] = target: T2, Human estrogen receptor alpha (hERα), …; test: EMSA; 10 mM MgCl2, 37 C binding; conditions: tags: none stated; baculovirus/insect cells; Invitrogen P2187 or EMD4 Biosciences 330655; label: 32P internal; stem-loop
[10] = target: T2, Human estrogen receptor alpha (hERα), …; test: EMSA; about half shifted below 15 nM; more than two-fold stronger than monomer; conditions: tags: none stated; baculovirus/insect cells; Invitrogen P2187 or EMD4 Biosciences 330655; label: 32P-CTP internal; two AptER-1(53nt) units on three-way junction of H. marismortui 5S RNA

## GCGUGACGGGCACCGCGAACAAAACGCAAGACAGAGUGCCGACAAGAGCACUACAAGCCCGUCCAUACUCCGGCACCGCGAACAAAACGCAAGACAGAGUGCCGACAAGAGCACUAACAGCCGGAGGCGCUU [AptER-1x2 (expressed dimer)]
SNAP-tag (control)
  binding signal (fold (control reference)): 1

B1: AptER-2 (ssRNA)
RNA: GGGAGAAUUCAACUGCCAUCUAGGCACACGCGAGAUAGAGCGAGGCCUCCAAAAAUGGCCACGCCAGGAAGCAAGUACUACAAGCUUCUGGACUCGGU
[1]
  Kd: 21 nM
[2]
  binding result: binds

B2: AptER-1(53nt) (ssRNA)
RNA: GGGCACCGCGAACAAAACGCAAGACAGAGUGCCGACAAGAGCACUACAAGCCC
[3]
  binding result: binds

B3: sB65 (65nt truncated clone B65) (ssRNA)
RNA: GGGCAGAAGCACCGCGAACAAAACGCAAGACAGAGUGCCGACAAGAGCACUACAAGCUUCUGCCC
[4]
  binding result: binds

## GGGCACCGCGAACAAAACGCAAGACAGAGUGCCC (ssRNA) [AptER-1 34nt version]
[5]
  binding result: no binding

B4: ERL5-1 (ssRNA)
RNA: GGGAGAAUUCAACUGCCAUCUACAAGCCAAGCAAGCGAGCAAAAAACGCGAGCAUCCGAGCUCCAAGACGUACUACAAGCUUCUGGACUCGGU
[6]
  binding result: binds

B5: ERL5-4 (ssRNA)
RNA: GGGAGAAUUCAACUGCCAUCUAACAGCCAAGUAAGCGACAACGACAAUCAAUGACGCGAACAAUCCGAAAGAACUACAAGCUUCUGGACUCGGU
[7]
  binding result: binds

B6: ERL5-5 (ssRNA)
RNA: GGGAGAAUUCAACUGCCAUCUACAGAAGGACCGCGAGGGUAAAAACCACGCACGACAGAGUAUAACAAAACAACUACAAGCUUCUGGACUCGGU
[7]
  binding result: binds

B7: ERL5-6 (ssRNA)
RNA: GGGAGAAUUCAACUGCCAUCUAAAUGAAAGGACGCACACUACGUGUCCUACAAACACAGAAACAAAAACCGAACUACAAGCUUCUGGACUCGGU
[7]
  binding result: binds

B8: AptER-3 (ssRNA)
RNA: GGGAGAAUUCAACUGCCAUCUAGGCGACCCAGGGCCGGGACGCAAAGCAGCCAAAACAGACGGCCCCAGUCAGGGAGUUACUACAAGCUUCUGGACUCGGU
[1]
  Kd: 30 nM
[2]
  binding result: binds

## AGTCAGGTCACAGTGACCTGATCGAAAGATCAGGTCACTGTGACCTGACT (structured_DNA) [ERE-50mer]
hERα DNA-binding domain
  binding result: binds
[8]
  binding result: binds

B9: AptER-1(65nt) (sB63) (ssRNA)
RNA: B3 RNA with A8G
[9]
  Kd: ~30 nM

B10: AptER-1x2(138nt) dimer (ssRNA)
RNA: GGAUCCGUGACGGGCACCGCGAACAAAACGCAAGACAGAGUGCCGACAAGAGCACUACAAGCCCGUCCAUACUCCGGCACCGCGAACAAAACGCAAGACAGAGUGCCGACAAGAGCACUAACAGCCGGAGGCGGAUCC
[10]
  Kd: < 15 nM
